What all share (test): cell-based or functional assay
The target of experiment [1] is 980903 (XM1): Purified mutant of Bacillus sub. wild type xylanase expressed in E. coli.
The target of experiment [2] is 980601 (BX): Purified preparation of Danisco's new bacterial xylanase expressed in E. coli (Bacillus subtilis) (UniProt P18429).
The target of experiment [3] is 980603 (Röhm): Purified preparation of Frimond's Belase xylanase (identical to Röhm's) (Bacillus subtilis).

This is an account of results in patent publication US20040234998A1.

Consider “endogenous endo-β-1,4-xylanase inhibitor from wheat flour”, for which, in experiment [1], the difference in inhibition between XM1 and XM2 came out at 250%; the residual activity of XM1 relative to rest activity of XM2 was determined as 2.5 times. Moreover, in experiment [2], the Difference, % (average rest activity of 980601 against 980603) stood at 25.6%; the Inhibation, % (flour 98002) came to 67%; the Inhibation, % (flour 98026) was 75%; the OD 590 (+inhibitor), xylanase activity on Xylazyme was found to be 0.165 OD 590. In experiment [2], this substance gave a Residual activity, % of 24.4%; a Rest act., % (Avg) of 29%; a Rest act., % (flour 98002) of 33%; a Rest act., % (flour 98026) of 25%. Further, the Vmax (Lineweaver-Burk plot, relative OD 590, with and without inhibitor) (relative OD 590) in experiment [2] turned out to be 1.19. In experiment [3], this substance showed an Inhibation, % (flour 98002) of 60.8%; an Inhibation, % (flour 98026) of 61.3%; a Rest act., % (Avg) of 39%; a Rest act., % (flour 98002) of 39.2%. Besides, the Rest act., % (flour 98026) in experiment [3] came out at 38.7%.
